Measurements published in patent US20240100176A1 (Eli Lilly, published 2024).

Assays:
Experiment in all cases: capture ELISA: Ab1 on anti-human IgG Fc, His-tagged receptor at 0.04 µg/mL, anti-His HRP
[1] = target: T1, hexahistidine tagged human IL-4Rα ECD P124R (human, UniProt P24394 26-232)
T1 construct: not shown: hexahistidine tag
Text: (§1) Example 2d. […] Briefly, thirty surface amino acid residue substitutions were introduced individually into hexahistidine tagged human IL-4Rα extra cellular domain (ECD) as follows: K2D, E6R, K22D, P26R, T31R, F41A, L42G, L43G, E45R, E52R, G56R, D66R, A71R, Q82G, K87D, E94R, H107A, D108R, P124R, D125R, D143R, R148D, L155R, R160D, S164R, S168R, Q181R, P192R, K195D, or H197G. Each mutant protein having a single amino acid residue substitution as described above was transiently expressed in CHO cells and purified using standard immobilized metal affinity chromatography techniques. […] The plates were then washed 3 times with PBST and the exemplified human IL-4Rα antibody was added to the wells at a final concentration of 1 μg/mL in PBS-casein and incubated for 1 hour at room temperature. The plates were washed 3 times with PBST, the IL-4Rα mutant proteins were serially diluted 5-fold from 1 μg/mL for 3 points. in PBS-casein and added to the plate at 50 μL/well and incubated for 1 hour at room temperature. The plates were washed 3 times with PBST and a 1000-fold dilution of anti-histidine tag antibody HRP conjugate (R&D Systems, Cat. #MAB050H) in PBS-casein was added and incubated for 45 minutes at room temperature. The plates were washed 3 times, TMB substrate (Pierce, Cat. #34028) was added per manufacturer instructions, the reaction was quenched with H₂SO₄, and absorbance was read at 450 nm on an ELISA plate reader.

[2] = target: T2, hexahistidine tagged human IL-4Rα ECD S168R (human, UniProt P24394 26-232)
T2 construct: not shown: hexahistidine tag
Text: as §1

[3] = target: T3, hexahistidine tagged human IL-4Rα ECD S164R (human, UniProt P24394 26-232)
T3 construct: not shown: hexahistidine tag
Text: as §1

[4] = target: T4, hexahistidine tagged human IL-4Rα ECD D125R (human, UniProt P24394 26-232)
T4 construct: not shown: hexahistidine tag
Text: as §1

[5] = target: T5, hexahistidine tagged human IL-4Rα ECD H197G (human, UniProt P24394 26-232)
T5 construct: not shown: hexahistidine tag
Text: as §1

[6] = target: T6, hexahistidine tagged human IL-4Rα ECD K87D (human, UniProt P24394 26-232)
T6 construct: not shown: hexahistidine tag
Text: as §1

[7] = target: T7, hexahistidine tagged human IL-4Rα ECD E45R (human, UniProt P24394 26-232)
T7 construct: not shown: hexahistidine tag
Text: as §1

[8] = target: T8, hexahistidine tagged human IL-4Rα ECD P26R (human, UniProt P24394 26-232)
T8 construct: not shown: hexahistidine tag
Text: as §1

[9] = target: T9, hexahistidine tagged human IL-4Rα ECD F41A (human, UniProt P24394 26-232)
T9 construct: not shown: hexahistidine tag
Text: as §1

[10] = target: T10, hexahistidine tagged human IL-4Rα ECD T31R (human, UniProt P24394 26-232)
T10 construct: not shown: hexahistidine tag
Text: as §1

[11] = target: T11, hexahistidine tagged human IL-4Rα ECD L42G (human, UniProt P24394 26-232)
T11 construct: not shown: hexahistidine tag
Text: as §1

[12] = target: T12, hexahistidine tagged human IL-4Rα ECD P192R (human, UniProt P24394 26-232)
T12 construct: not shown: hexahistidine tag
Text: as §1

[13] = target: T13, hexahistidine tagged human IL-4Rα ECD E6R (human, UniProt P24394 26-232)
T13 construct: not shown: hexahistidine tag
Text: as §1

[14] = target: T14, hexahistidine tagged human IL-4Rα ECD K195D (human, UniProt P24394 26-232)
T14 construct: not shown: hexahistidine tag
Text: as §1

[15] = target: T15, hexahistidine tagged human IL-4Rα ECD Q181R (human, UniProt P24394 26-232)
T15 construct: not shown: hexahistidine tag
Text: as §1

[16] = target: T16, hexahistidine tagged human IL-4Rα ECD A71R (human, UniProt P24394 26-232)
T16 construct: not shown: hexahistidine tag
Text: as §1

T5 sequence (P24394 26-232 H222G): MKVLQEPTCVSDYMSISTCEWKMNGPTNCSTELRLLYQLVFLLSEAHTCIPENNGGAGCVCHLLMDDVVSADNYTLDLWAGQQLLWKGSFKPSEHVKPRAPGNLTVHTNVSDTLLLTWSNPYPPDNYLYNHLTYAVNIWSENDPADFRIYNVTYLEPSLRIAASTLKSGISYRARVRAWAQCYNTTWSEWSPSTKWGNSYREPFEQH
T15 sequence (P24394 26-232 Q206R): as the sequence (P24394 26-232 H222G) above, with Q181R, G197H counted along it
T6 sequence (P24394 26-232 K112D): as the sequence (P24394 26-232 H222G) above, with K87D, G197H counted along it
T4 sequence (P24394 26-232 D150R): as the sequence (P24394 26-232 H222G) above, with D125R, G197H counted along it
T16 sequence (P24394 26-232 A96R): as the sequence (P24394 26-232 H222G) above, with A71R, G197H counted along it
T13 sequence (P24394 other isoform, or with tags, fused parts or gaps): as the sequence (P24394 26-232 H222G) above, with E6R, G197H counted along it
T9 sequence (P24394 26-232 F66A): as the sequence (P24394 26-232 H222G) above, with F41A, G197H counted along it
T14 sequence (P24394 26-232 K220D): as the sequence (P24394 26-232 H222G) above, with K195D, G197H counted along it
T10 sequence (P24394 26-232 T56R): as the sequence (P24394 26-232 H222G) above, with T31R, G197H counted along it
T7 sequence (P24394 26-232 E70R): as the sequence (P24394 26-232 H222G) above, with E45R, G197H counted along it
T12 sequence (P24394 26-232 P217R): as the sequence (P24394 26-232 H222G) above, with P192R, G197H counted along it

B1: anti-human IL-4Rα antibody Ab1 (antibody, human IgG4 S228P, kappa)
heavy: QVQLVESGGGLVQPGGSLRLSCVASGFTFSHSSMNWVRQAPGKGLEWVSYISRATGAVYYADSVKGRFTISRDNAKNSLYLQMNSLRDEDTAVYYCAREPVFDYWGQGTLVTVSSASTKGPCVFPLAPCSRSTSESTAALGCLVKDYFPEPVTVSWNSGALTSGVHTFPAVLQSSGLYSLSSVVTVPSSSLGTKTYTCNVDHKPSNTKVDKRVESKYGPPCPPCPAPEFLGGPSVFLFPPKPKDTLMISRTPEVTCVVVDVSQEDPEVKFNWYVDGVEVHNAKTKPREEQFNSTYRVVSVLTVLHQDWLNGKEYKCKVSNKGLPSSIEKTISKAKGQPREPQVYTLPPSREEMTKNQVSLTCLVKGFYPSDICVEWESNGQPENNYKTTPPVLDSDGSFFLYSRLTVDKSRWQQGNVFSCSVMHEALHNHYTQKSLSLSLG
light: DIQMTQSPSAMSASVGDRVTITCRASQDISNYLAWFQQKPGKVPTRLIYAASSLQSGVPSRFSGSGSGTEFTLTISSLQPEDFATYYCLQWSSYPRTFGQGTKVEIKRTVAAPSVFIFPPSDEQLKSGTASVVCLLNNFYPREAKVQWKVDNALQSGNSQESVTEQDSKDSTYSLSSTLTLSKADYEKHKVYACEVTHQGLSSPVTKSFNRGEC
notes: human kappa light chain; also called anti-human IL-4Rα Ab1; unconjugated Ab1
For B1, the “ELISA (OD450)” value [1] was 1.16 OD450, the “ELISA (OD450)” value [2] was 1.18 OD450 and the “ELISA (OD450)” value [3] was 1.4 OD450. The “ELISA (OD450)” value [4] was 1.01 OD450, the “ELISA (OD450)” value [5] was 0.967 OD450 and the “ELISA (OD450)” value [6] was 0.911 OD450. For the same binder, the “ELISA (OD450)” value [7] was 1.58 OD450, the “ELISA (OD450)” value [8] was 0.883 OD450 and the “ELISA (OD450)” value [9] was 1.15 OD450. The “ELISA (OD450)” value [10] was 0.994 OD450, the “ELISA (OD450)” value [11] was 0.965 OD450 and the “ELISA (OD450)” value [12] was 1.22 OD450. The “ELISA (OD450)” value [13] was 0.915 OD450, the “ELISA (OD450)” value [14] was 0.992 OD450 and the “ELISA (OD450)” value [15] was 1.17 OD450. For the same binder, the “ELISA (OD450)” value [16] was 0.907 OD450.
